The target of data set [1] is T1, Soybean Kunitz Trypsin Inhibitor, P01070.
T1 chain: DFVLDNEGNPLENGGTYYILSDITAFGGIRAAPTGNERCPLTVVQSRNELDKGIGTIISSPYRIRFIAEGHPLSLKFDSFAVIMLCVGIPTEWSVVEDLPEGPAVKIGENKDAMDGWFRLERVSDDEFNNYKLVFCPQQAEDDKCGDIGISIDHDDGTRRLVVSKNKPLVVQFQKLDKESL

Data set [2] addresses soybean agglutinin (SBA), P05046.
Data set [3] concerns the target T2, soybean Bowman-Birk Inhibitor, P01055.
T2 chain: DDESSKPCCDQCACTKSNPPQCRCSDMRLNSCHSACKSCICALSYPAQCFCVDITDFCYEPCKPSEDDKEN

soybean agglutinin (SBA), P05046, sequence (P05046 33-285): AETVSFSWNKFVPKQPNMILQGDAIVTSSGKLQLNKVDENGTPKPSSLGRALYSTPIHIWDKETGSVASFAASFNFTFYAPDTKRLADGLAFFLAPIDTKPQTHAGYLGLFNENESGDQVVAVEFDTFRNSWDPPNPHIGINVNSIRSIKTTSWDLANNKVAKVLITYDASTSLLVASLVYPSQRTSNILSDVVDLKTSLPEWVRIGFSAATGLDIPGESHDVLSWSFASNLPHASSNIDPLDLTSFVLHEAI

B1: protease derived from Nocardiopsis sp. NRRL 18262 (protein)
chain: ADIIGGLAYTMGGRCSVGFAATNAAGQPGFVTAGHCGRVGTQVTIGNGRGVFEQSVFPGNDAAFVRGTSNFTLTNLVSRYNTGGYATVAGHNQAPIGSSVCRSGSTTGWHCGTIQARGQSVSYPEGTVTNMTRTTVCAEPGDSGGSYISGTQAQGVTSGGSGNCRTGGTTFYQEVTPMVNSWGVRLRT
As for B1, the figures for the % of anti-nutritional factor degraded in data set [1], in data set [2] and in data set [3] were 100%, 75% and 25%, respectively.

The values are drawn from patent publication US20040161448.
